Data as given in patent US20160355605A1 (published 2016).

Key:
[1] = target: T1, Muc1 mucin bearing the CA6 sialoglycotope (DS6 antigen), as expressed by CA6-positive human tumour cell lines (human, UniProt P15941 24-1255, CA6 epitope: sialic acid-dependent glycotope on sialylated O-linked carbohydrate chains; sites not stated); test: flow cytometry competition; competitor 2 nM biotin-muDS6, streptavidin-DTAF (called apparent EC50 in paragraph 357)
T1 construct: whole, on cells; Flow cytometry used whole cells; dot blots, immunoprecipitation and western blots used cell lysates; also called CA6 antigen; >250 kDa band

[2] = target: T1, Muc1 mucin bearing the CA6 …; test: cell-based or functional assay
[3] = target: T1, Muc1 mucin bearing the CA6 …; test: flow cytometry, direct binding to KB cells; apparent Kd
Protocol: In the first set of experiments direct binding to a CA6-expressing cell line, KB, was measured.

| Binder | IC50 [1] [nM] | in vitro cytotoxicity (MTT), WISH cells, IC50 [2] [nM] | Kd [3] [nM] |
| --- | --- | --- | --- |
| murine DS6 anti-CA6 monoclonal antibody (antibody, V domains shown, Murine monoclonal IgG purified from the hybridoma (ATCC PTA-4449); also called muDS6; DS6 antibody) VH: QAYLQQSGAELVRSGASVKMSCKASGYTFTSYNMHWVKQTPGQGLEWIGYIYPGNGATNYNQKFKGKATLTADPSSSTAYMQISSLTSEDSAVYFCARGDSVPFAYWGQGTLVTVSA VL: QIVLTQSPAIMSASPGEKVTITCSAHSSVSFMHWFQQKPGTSPKLWIYSTSSLASGVPARFGGSGSGTSYSLTISRMEAEDAATYYCQQRSSFPLTFGAGTKLELKR | 1.9 |  |  |
| huDS6v1.01-SPDB-DM4 conjugate (antibody, human IgG1, V domains shown, DM4 maytansinoid via SPDB disulfide linker, 3.2 DM4 per antibody; sites not stated) VH: QAQLVQSGAEVVKPGASVKMSCKASGYTFTSYNMHWVKQTPGQGLEWIGYIYPGNGATNYNQKFQGKATLTADTSSSTAYMQISSLTSEDSAVYFCARGDSVPFAYWGQGTLVTVSA VL: EIVLTQSPATMSASPGERVTITCSAHSSVSFMHWFQQKPGTSPKLWIYSTSSLASGVPARFGGSGSGTSYSLTISSMEAEDAATYYCQQRSSFPLTFGAGTKLELKR |  | 0.44 |  |
| humanized DS6 antibody version 1.01 (antibody, V domains shown, also called huDS6v1.01; huDS6 v1.01) VH: QAQLVQSGAEVVKPGASVKMSCKASGYTFTSYNMHWVKQTPGQGLEWIGYIYPGNGATNYNQKFQGKATLTADTSSSTAYMQISSLTSEDSAVYFCARGDSVPFAYWGQGTLVTVSA VL: EIVLTQSPATMSASPGERVTITCSAHSSVSFMHWFQQKPGTSPKLWIYSTSSLASGVPARFGGSGSGTSYSLTISSMEAEDAATYYCQQRSSFPLTFGAGTKLELKR | 3 |  | 0.82 |
| humanized DS6 antibody version 1.21 (antibody, V domains shown, also called huDS6v1.21; huDS6 v1.21) VH: QAQLVQSGAEVVKPGASVKMSCKASGYTFTSYNMHWVKQTPGQGLEWIGYIYPGNGATNYNQKFQGKATLTADPSSSTAYMQISSLTSEDSAVYFCARGDSVPFAYWGQGTLVTVSA VL: EIVLTQSPATMSASPGERVTITCSAHSSVSFMHWFQQKPGTSPKLWIYSTSSLASGVPARFGGSGSGTSYSLTISSMEAEDAATYYCQQRSSFPLTFGAGTKLELKR | 1.9 |  | 0.85 |
| chimeric DS6 antibody (antibody, V domains shown, also called chDS6) VH: QAYLQQSGAELVRSGASVKMSCKASGYTFTSYNMHWVKQTPGQGLEWIGYIYPGNGATNYNQKFKGKATLTADPSSSTAYMQISSLTSEDSAVYFCARGDSVPFAYWGQGTLVTVSA VL: QIVLTQSPAIMSASPGEKVTITCSAHSSVSFMHWFQQKPGTSPKLWIYSTSSLASGVPARFGGSGSGTSYSLTISRMEAEDAATYYCQQRSSFPLTFGAGTKLELKR | 1.7 |  |  |
